According to the Immune Epitope Database (IEDB):

Assays:
Test in all cases: IEDB peptide-MHC binding, purified MHC/competitive/radioactivity; filed as Kd, often an IC50 or EC50 that approximates it; ≥ and ≤ were set here for values at or beyond the usual limits of such assays
HLA-A*02:02 = target: HLA-A*02:02
HLA-A*02:03 = target: HLA-A*02:03
HLA-A*02:06 = target: HLA-A*02:06
HLA-A*11:01 = target: HLA-A*11:01
HLA-A*31:01 = target: HLA-A*31:01
HLA-A*68:01 = target: HLA-A*68:01
HLA-A*33:01 = target: HLA-A*33:01
HLA-A*03:01 = target: HLA-A*03:01
[1] = source organism: Vaccinia virus WR
[2] = source organism: SARS coronavirus Tor2
[3] = source organism: Mammarenavirus machupoense
[4] = source organism: Mammarenavirus brazilense
[5] = source organism: Lymphocytic choriomeningitis virus (strain Armstrong)

Sequence | Kd (HLA-A*02:02; [1]) | Kd (HLA-A*02:03; [1]) | Kd (HLA-A*02:06; [1]) | further results
AIFNNRNLA | 272 nM | 98.1 nM | 7.07 nM | 
AIFNNRNLAA | 450 nM | 103 nM | 774 nM | 
AISAVYFKA | 3.65 nM | 525 nM | 149 nM | 
ALLADKFPV |  |  |  | Kd (HLA-A*02:02; [2]): 29.1 nM; Kd (HLA-A*02:03; [2]): 604 nM; Kd (HLA-A*02:06; [2]): 22.8 nM
ALVFLILCFT |  |  |  | Kd (HLA-A*02:02; [2]): 209 nM; Kd (HLA-A*02:03; [2]): 1120 nM; Kd (HLA-A*02:06; [2]): 229 nM
AVIPFDDIV | 313 nM | 241 nM | 42.4 nM | 
AVSVYGAIT | 11400 nM | 9610 nM | 14300 nM | 
DINVIGLIVI | 7150 nM | 2810 nM | 2790 nM | 
DLTALLSCI | 5200 nM | 996 nM | 4880 nM | 
DMLLNVQTLI | 41.6 nM | 161 nM | 291 nM | 
DVIKSISSI | ≥ 63800 nM | 7520 nM | 15000 nM | 
EIRGVLPEET | 9600 nM | 4870 nM | ≥ 20100 nM | 
ETLPELNLSL | 52.3 nM | 130 nM | 134 nM | 
EVERLMELPV | 2460 nM | 1430 nM | 3630 nM | 
FIISTLNKIL | 5080 nM | 1.8 nM | 8.1 nM | 
FISSFLLPLT | 38.6 nM | 44.2 nM | 50.6 nM | 
FITVLTSVDI | 1420 nM | 237 nM | 1270 nM | 
FLLPSLATV |  |  |  | Kd (HLA-A*02:02; [2]): 0.134 nM; Kd (HLA-A*02:03; [2]): 0.204 nM; Kd (HLA-A*02:06; [2]): 0.411 nM
FQESFYEDIA | 2560 nM | 555 nM | 303 nM | 
FTDCRTIDA | 10900 nM | 2680 nM | 2710 nM | 
FVDEFYAYL |  |  |  | Kd (HLA-A*02:02; [2]): 0.0886 nM; Kd (HLA-A*02:03; [2]): 2.62 nM; Kd (HLA-A*02:06; [2]): 0.36 nM
FVFNGTSWFI |  |  |  | Kd (HLA-A*02:02; [2]): 1.01 nM; Kd (HLA-A*02:03; [2]): 2.15 nM; Kd (HLA-A*02:06; [2]): 0.439 nM
GLSQFTHTV |  |  |  | Kd (HLA-A*02:02; [3]): 5.28 nM; Kd (HLA-A*02:03; [3]): 7.65 nM; Kd (HLA-A*02:06; [3]): 332 nM
GLTTHCTKL | 100 nM | 30 nM | ≥ 31600 nM | 
HQIFGTAYGV |  |  |  | Kd (HLA-A*02:06; source organism: Dengue virus 1 Nauru/West Pac/1974): 20.6 nM
HTNHSDISM | 8810 nM | 4140 nM | 1200 nM | 

Sequence | Kd (HLA-A*02:02; [1]) | Kd (HLA-A*02:03; [1]) | Kd (HLA-A*02:06; [1]) | further results
IASAPQQLCT | ≥ 53200 nM | ≥ 70400 nM | 8320 nM | 
IIFWFSLEI |  |  |  | Kd (HLA-A*02:02; [2]): 1.75 nM; Kd (HLA-A*02:03; [2]): 87 nM; Kd (HLA-A*02:06; [2]): 4.64 nM
IIMAINVFT | 39.3 nM | 180 nM | 10.3 nM | 
IIYSKAGNI | 9760 nM | 12.6 nM | 13700 nM | 
ILEYLYIMRV | 73.5 nM | 83.2 nM | 134 nM | 
ILSEKRKDTI | ≥ 44000 nM | 541 nM | ≥ 69800 nM | 
IMECSRMLDT | 5240 nM | 7200 nM | ≥ 69800 nM | 
IVAIDLDPV |  |  |  | Kd (HLA-A*02:06; source organism: Dengue virus 1 Brazil/97-11/1997): 11.2 nM
IVDSMIIGHI | 507 nM | 208 nM | 561 nM | 
IVVALSSLV | 26.7 nM | 3.85 nM | 8.23 nM | 
KLIEYSDFA |  |  |  | Kd (HLA-A*02:02; [2]): 0.0948 nM; Kd (HLA-A*02:03; [2]): 0.534 nM; Kd (HLA-A*02:06; [2]): 0.705 nM
KQYDSTDFKM | 8.38 nM | 3270 nM | 107 nM | 
LLEQLIENI | 702 nM | 1960 nM | 539 nM | 
LLPDALLFTL |  |  |  | Kd (HLA-A*02:02; [4]): 4.72 nM; Kd (HLA-A*02:03; [4]): 732 nM; Kd (HLA-A*02:06; [4]): 78.9 nM
LNVSYLCHL |  |  |  | Kd (HLA-A*02:02; [5]): 296 nM; Kd (HLA-A*02:03; [5]): 7100 nM; Kd (HLA-A*02:06; [5]): 13600 nM
MSPALFFTFL |  |  |  | Kd (HLA-A*02:02; [4]): 546 nM; Kd (HLA-A*02:03; [4]): 7630 nM; Kd (HLA-A*02:06; [4]): 834 nM
NITRLEVIGL | 907 nM | 95.1 nM | 197 nM | 
NMCNSDVSV | 80 nM | 30.3 nM | 97 nM | 
NQILEENVEV |  |  |  | Kd (HLA-A*02:06; source organism: Dengue virus 2 Jamaica/1409/1983): 56.1 nM
NTTTFITVLT | 1960 nM | 596 nM | 600 nM | 
NVDIIDLLL | 461 nM | 4090 nM | 22.3 nM | 
PMIIGEPIIV | ≥ 70000 nM | 8840 nM | ≥ 69800 nM | 
PVETLFGSYI | 13700 nM | 11800 nM | ≥ 69800 nM | 
QLLKILDNL | 227 nM | 319 nM | 135 nM | 
QLLRLMADK |  |  |  | Kd (HLA-A*11:01; [1]): 349 nM; Kd (HLA-A*31:01; [1]): 2570 nM; Kd (HLA-A*68:01; [1]): ≥ 21900 nM; Kd (HLA-A*33:01; [1]): ≥ 46200 nM; Kd (HLA-A*03:01; [1]): 61.9 nM
QQWIQFMMSR |  |  |  | Kd (HLA-A*11:01; [2]): 7800 nM; Kd (HLA-A*31:01; [2]): 127 nM; Kd (HLA-A*68:01; [2]): 6640 nM; Kd (HLA-A*33:01; [2]): 1450 nM; Kd (HLA-A*03:01; [2]): 12500 nM
